Laboratory results: article PMC9231623, “ESCPE-1 mediates retrograde endosomal sorting of the SARS-CoV-2 host factor Neuropilin-1” (Proceedings of the National Academy of Sciences of the …, 2022)

Tests used:
SNX5 PX domain = molecular target: T1, SNX5 PX domain (UniProt Q9Y5X3 25-172); assay: ITC; Microcal ITC200, 298 K; 50 mM Hepes pH 7.5, 200 mM NaCl, 0.5 mM TCEP; SNX5/6 PX titrated with NRP1 peptide, 13 injections; single site binding model; mean of three experiments; details: both partners purified
T1 construct: PX domain of sorting nexin 5, from a pGEX-4T-2 construct; also called PX domain of SNX5; source: E. coli BL21 (DE3), purified (glutathione Sepharose 4B, thrombin cleavage, Superdex 75 gel filtration)
T1 sequence (looked up): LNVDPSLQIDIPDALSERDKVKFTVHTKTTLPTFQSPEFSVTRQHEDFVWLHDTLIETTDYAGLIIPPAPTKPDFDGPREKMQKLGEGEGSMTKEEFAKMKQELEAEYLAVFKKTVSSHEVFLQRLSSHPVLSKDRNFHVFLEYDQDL

SNX6 PX domain = molecular target: T2, SNX6 PX domain (UniProt Q9UNH7 26-173); assay: as above; details: both partners purified
T2 construct: PX domain of sorting nexin 6, from a pGEX-4T-2 construct; also called PX domain of SNX6; source: E. coli BL21 (DE3), purified (glutathione Sepharose 4B, thrombin cleavage, Superdex 75 gel filtration)
T2 sequence (looked up): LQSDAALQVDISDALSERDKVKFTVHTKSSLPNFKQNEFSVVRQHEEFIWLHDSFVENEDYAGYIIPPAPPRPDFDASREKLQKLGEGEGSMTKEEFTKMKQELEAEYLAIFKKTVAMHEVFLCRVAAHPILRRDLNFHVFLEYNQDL

B1: NRP1 peptide (residues 894 to 918 of the cytosolic tail) (peptide)
peptide: not shown
notes: Neuropilin-1 cytosolic tail, residues 894 to 918; only stretches of it are printed (898-NYNFELV-904, 905-DG-906, 907-VKLKKD-912); also called synthetic peptide corresponding to these residues in NRP1; source: synthetic peptide
B1 gave a Kd (SNX5 PX domain) of 19.8 µM and a Kd (SNX6 PX domain) of 14.3 µM.
